Measured values from patent US20240209099A1 (SUZHOU TRANSCENTA THERAPEUTICS, published 2024).

Experiments:
[1] = target: T1, Recombinant Human VEGFR2/KDR Protein, His tag (hVEGFR2-his) (human, UniProt P35968 20-764); assay: SPR (Biacore), antibody captured by anti-Fc, antigen 2.5-80 nM
T1 construct: Expressed in HEK293, bought from ACRO Biosystems; also called human VEGFR2-his; Human VEGFR2/KDR-His
Procedure, shortened: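 Human or mouse Fc-captured antibody (200–300 RU) on anti-Fc CM5 surface; antigen injected at 2.5–80 nM in HBS-EP pH 7.4 with 180 s association. Reference-cell-subtracted sensorgrams; regeneration with glycine pH 1.5.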

[2] = target: T2, human VEGFR2 on HUVEC cells (human, UniProt P35968 20-1356); assay: flow cytometry on HUVEC cells, MFI, anti-human IgG (H+L)-PE
T2 construct: also called hVEGFR2 on HUVEC
Description: Same methods with Example 11. Briefly, Log phase HUVEC cells were collected and added to each tube. Then 100 μl/tube serial diluted humanized antibodies in FACS buffer were added and kept at 4° C. for 1 hr. Binding of antibodies to HUVEC was detected by PE signal of the 2nd antibody (anti-hIgG (H+L)-PE), which was added after the 1st antibodies. (see FIG. 15).

[3] = target: T1, Recombinant Human VEGFR2/KDR Protein, …; assay: ELISA, human VEGFR2-his coated, anti-human Fc-HRP; antibody made in CHO cells
[4] = target: T3, Recombinant Rhesus macaque VEGFR2/KDR Protein, His tag (rhesus macaque); assay: ELISA, rhesus VEGFR2-his coated, anti-human Fc-HRP; antibody made in CHO cells
T3 construct: Expressed in HEK293, bought from ACRO Biosystems; also called rhesus VEGFR2-his; rhesus VEGFR2
T3 chain: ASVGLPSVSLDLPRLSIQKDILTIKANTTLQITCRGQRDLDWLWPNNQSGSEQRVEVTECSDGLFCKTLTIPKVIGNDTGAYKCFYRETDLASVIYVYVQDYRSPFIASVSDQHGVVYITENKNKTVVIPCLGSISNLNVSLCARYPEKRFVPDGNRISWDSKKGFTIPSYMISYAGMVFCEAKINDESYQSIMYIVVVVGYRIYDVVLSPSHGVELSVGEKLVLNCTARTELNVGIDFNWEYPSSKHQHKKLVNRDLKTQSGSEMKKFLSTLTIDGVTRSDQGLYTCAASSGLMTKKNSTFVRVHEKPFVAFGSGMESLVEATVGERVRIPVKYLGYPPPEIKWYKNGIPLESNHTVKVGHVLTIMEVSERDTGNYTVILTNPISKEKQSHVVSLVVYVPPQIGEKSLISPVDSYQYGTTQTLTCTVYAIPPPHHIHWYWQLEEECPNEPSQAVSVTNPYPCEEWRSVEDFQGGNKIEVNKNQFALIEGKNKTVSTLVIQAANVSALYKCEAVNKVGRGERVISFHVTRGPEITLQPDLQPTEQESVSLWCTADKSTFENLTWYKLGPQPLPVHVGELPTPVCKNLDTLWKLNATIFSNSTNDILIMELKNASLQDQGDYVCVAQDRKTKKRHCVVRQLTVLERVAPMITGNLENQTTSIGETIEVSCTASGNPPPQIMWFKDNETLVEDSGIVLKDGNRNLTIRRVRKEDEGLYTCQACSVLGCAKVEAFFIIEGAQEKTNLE

[5] = target: T1, Recombinant Human VEGFR2/KDR Protein, …; assay: competition ELISA: VEGF-A coated (0.25 ug/ml), antibody titrated together with 1 ug/ml human VEGFR2, detection with mouse anti-VEGFR2 serum and anti-mouse Fc-HRP; blocked ligand VEGF-A
Description: For this assay, 0.25 μg/ml VEGF-A was coated on ELISA plate before a mixture of chimeric antibodies and VEGFR2 were added. To detect free VEGF-A (not bind to VEGFR2), 1:1000 diluted mouse serum (mouse previous immunized with human VEGFR2) were added and HRP conjugated goat anti-mouse Fc antibody was used as secondary antibody.
Same protocol of Example 10. Briefly, 0.25 μg/ml VEGF-A was coated overnight at 4° C. After blocking, serial diluted 54-H2L1, 48-H3L1, Ramucirumab and 1 μg/ml human VEGFR2 or rhesus VEGFR2 were added at the same time for 2 hour-incubation. After wash, mouse serum containing polyclone VEGFR2 antibody and HRP conjugated goat anti-mouse Fc antibody were added for detection of free VEGF-A coated on the plates (see FIGS. 13A and 13B).

Kd [1]: 2.51 nM
koff [1]: 0.000138 s⁻¹
kon [1]: 54800 M⁻¹ s⁻¹
EC50 (read off the curve) [2]: ~0.3 µg/mL
EC50 [3]: 0.00755 µg/mL
EC50 [4]: 0.0111 µg/mL
IC50 [5]: 0.654 µg/mL
B1: 54-H2L1 (humanized Mab54) (antibody, human IgG1, V domains shown)
VH: EVQLVESGGGLVKPGGSLRLSCAASGFTFSMYGMSWVRQAPGKRLEWVASISIGGSYTYYADSVKGRFTISRDNAKNTLYLQMNSLRAEDTAVYYCARELDGNYDYWGQGTTLTVSS
VL: DIVITQDELSLPVTFGESVSISCRSSKSLLYKDGKTYLNWFLQRPGQSPQLLIYLMSTRASGVSDRFSGSGSGTDFTLKISRVEAEDVGIYYCQQLVEYPFTFGSGTKLEIK
notes: also called 54-H2L1 (CHO); humanized 54 variant H2L1
